In patent US20050196403A1 (published 2005):
Several values for one entry are separate records, joined by “and”; a condition that tells them apart may be missing. Equal entries are not always repeated. Values belong to the binder of their own block, whether it stands above or below them. Non-standard residues stand in square brackets, D forms with d. No end group written: not given here. Abu = CC[C@H](N)C(=O)O

Legend:
HLA-B*0702 [1] = molecular target: HLA-B*0702 (Human)
HLA-A*0203 = HLA-A*0203 (Human); assay: competition vs 125I probe, purified HLA
HLA-A*0301 = HLA-A*0301 (human); assay: competition with 125I probe peptide, purified HLA class I
HLA-A*1101 = HLA-A*1101 (human); assay: as above
HLA-A*6801 = HLA-A*6801 (human); assay: as above
HLA-A*0101 = HLA-A*0101 (human); assay: as above
HLA-B*0702 [2] = molecular target: HLA-B*0702 (Human); assay: competition vs 125I probe, purified HLA
HLA-B*3501 = HLA-B*3501 (Human); assay: competition vs 125I probe, purified HLA
HLA-B*5301 = HLA-B*5301 (Human); assay: competition vs 125I probe, purified HLA
HLA-A*3101 = HLA-A*3101 (human); assay: competition with 125I probe peptide, purified HLA class I
HLA-A*0206 [3] = molecular target: HLA-A*0206 (human); assay: as above
HLA-B*5401 = HLA-B*5401 (Human); assay: competition vs 125I probe, purified HLA
HLA-B*5101 = HLA-B*5101 (Human); assay: competition vs 125I probe, purified HLA
HLA-A*0206 [4] = molecular target: HLA-A*0206 (Human); assay: competition vs 125I probe, purified HLA
HLA-A*0201 = HLA-A*0201 (human); assay: competition with 125I probe peptide, purified HLA class I

B2: p53.193 HLIRVEGNLRV (peptide)
peptide: HLIRVEGNLRV
IC50 (HLA-A*0203): 83 nM

B5: p53 peptide KPLDGEYFTL (position 321, 10 amino acids) (peptide)
peptide: KPLDGEYFTL
binding affinity ratio (IC50 of standard peptide / IC50 of test peptide) (HLA-B*0702 [1]): 0.0055 ratio

B6: 57.0126 GTDKSVTCTY p53.117.D3 (peptide)
peptide: GTDKSVTCTY
IC50 (HLA-A*0101): 42.4 nM

B8: 48.0055 FPALNKMF (p53.127.F1) (peptide)
peptide: FPALNKMF
IC50 (HLA-B*0702 [2]): 0.025 nM
IC50 (HLA-B*3501): 3000 nM
IC50 (HLA-B*5301): 6200 nM

B9: p53 peptide LPSQAMDDL (position 35, 9 amino acids) (peptide)
peptide: LPSQAMDDL
binding affinity ratio (IC50 of standard peptide / IC50 of test peptide) (HLA-B*0702 [1]): 0.0038 ratio

B10: 48.0127 FPQPKKKPI (p53) (peptide)
peptide: FPQPKKKPI
IC50 (HLA-B*0702 [2]): 0.61 nM

B11: 48.0128 FPQPKKKPL (p53) (peptide)
peptide: FPQPKKKPL
IC50 (HLA-B*0702 [2]): 2.3 nM

B12: p53 peptide LPENNVLSPL (position 26, 10 amino acids) (peptide)
peptide: LPENNVLSPL
binding affinity ratio (IC50 of standard peptide / IC50 of test peptide) (HLA-B*0702 [1]): 0.007 ratio

B14: 1329.04 CTTIHYNYM p53.229 (peptide)
peptide: CTTIHYNYM
IC50 (HLA-A*0206 [3]): 561 nM

B17: 48.0123 FPGTRVRAI (p53.152.F1) (peptide)
peptide: FPGTRVRAI
IC50 (HLA-B*0702 [2]): 1.1 nM
IC50 (HLA-B*5101): 663 nM

B18: 1371.18 KVFBQLAK p53.132.V2B4 (peptide)
peptide: KVF[Abu]QLAK
IC50 (HLA-A*0301): 846 nM
IC50 (HLA-A*3101): 7500 nM

B19: 48.0196 FPPGSTKRAL (p53) (peptide)
peptide: FPPGSTKRAL
IC50 (HLA-B*0702 [2]): 0.79 nM
IC50 (HLA-B*5101): 6110 nM

B20: 1371.31 RVBABPGRDRK p53.273.B3B5K11 (peptide)
peptide: RV[Abu]A[Abu]PGRDRK
IC50 (HLA-A*1101): 200 nM
IC50 (HLA-A*6801): 2500 nM

B21: LLGRDSFEV mp53.261 (peptide)
peptide: LLGRDSFEV
IC50 (HLA-A*0201): 41.7 nM and 27.8 nM

Continued, values first:

binding affinity ratio (IC50 of standard peptide / IC50 of test peptide) (HLA-B*0702 [1]): 0.0041 ratio
B1: p53 peptide TPAAPAPA (position 81, 8 amino acids) (peptide)
peptide: TPAAPAPA

binding affinity ratio (IC50 of standard peptide / IC50 of test peptide) (HLA-B*0702 [1]): 0.0028 ratio
B3: p53 peptide MPEAAPPV (position 66, 8 amino acids) (peptide)
peptide: MPEAAPPV

IC50 (HLA-A*0301): 25 nM
IC50 (HLA-A*1101): 8.3 nM
IC50 (HLA-A*6801): 14.8 nM
B4: 1371.17 BVYSPALNR p53.124.B1V2R9 (peptide)
peptide: BVYSPALNR
modifications: B at position 1 is alpha-amino butyric acid (in place of cysteine)

binding affinity ratio (IC50 of standard peptide / IC50 of test peptide) (HLA-B*0702 [1]): 0.0044 ratio
B7: p53 peptide SPLPSQAM (position 33, 8 amino acids) (peptide)
peptide: SPLPSQAM

IC50 (HLA-A*0301): 1000 nM
IC50 (HLA-A*1101): 25 nM
IC50 (HLA-A*3101): 621 nM
IC50 (HLA-A*6801): 11.4 nM
B13: 1371.27 SVBMGGMNRR p53.240.V2B3 (peptide)
peptide: SV[Abu]MGGMNRR

IC50 (HLA-B*5401): 500 nM
IC50 (HLA-B*0702 [2]): 0.052 nM
IC50 (HLA-B*5101): 5500 nM
B15: 48.0234 FPALNKMFCQL (p53.127.F1) (peptide)
peptide: FPALNKMFCQL

IC50 (HLA-A*0206 [4]): 561 nM
B16: p53.229 CTTIHYNYM (peptide)
peptide: CTTIHYNYM
